# Assays:
# [1] = target: TGFBR1 (transforming growth factor, beta receptor I), endogenous in mouse cells (mouse) (UniProt Q64729); test: cell-based or functional assay
# [2] = target: ACVR1B (activin receptor type-1B), endogenous in mouse cells (mouse) (UniProt Q61271); test: cell-based or functional assay
# UniProt Q61271, sequence (Q61271 24-505): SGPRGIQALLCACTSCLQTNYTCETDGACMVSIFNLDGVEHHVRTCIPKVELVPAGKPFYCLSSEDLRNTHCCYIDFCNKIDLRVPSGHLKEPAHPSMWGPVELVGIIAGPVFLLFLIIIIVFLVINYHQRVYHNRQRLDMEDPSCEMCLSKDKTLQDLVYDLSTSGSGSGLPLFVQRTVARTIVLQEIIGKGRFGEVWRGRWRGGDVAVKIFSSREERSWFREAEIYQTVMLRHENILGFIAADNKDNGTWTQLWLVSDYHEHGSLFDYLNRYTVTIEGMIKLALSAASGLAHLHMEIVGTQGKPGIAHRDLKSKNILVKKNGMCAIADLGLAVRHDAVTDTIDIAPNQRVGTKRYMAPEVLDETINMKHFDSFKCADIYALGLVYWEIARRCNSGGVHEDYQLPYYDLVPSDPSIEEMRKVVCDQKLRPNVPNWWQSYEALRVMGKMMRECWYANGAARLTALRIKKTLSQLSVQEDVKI
# UniProt Q64729, sequence (Q64729 30-503): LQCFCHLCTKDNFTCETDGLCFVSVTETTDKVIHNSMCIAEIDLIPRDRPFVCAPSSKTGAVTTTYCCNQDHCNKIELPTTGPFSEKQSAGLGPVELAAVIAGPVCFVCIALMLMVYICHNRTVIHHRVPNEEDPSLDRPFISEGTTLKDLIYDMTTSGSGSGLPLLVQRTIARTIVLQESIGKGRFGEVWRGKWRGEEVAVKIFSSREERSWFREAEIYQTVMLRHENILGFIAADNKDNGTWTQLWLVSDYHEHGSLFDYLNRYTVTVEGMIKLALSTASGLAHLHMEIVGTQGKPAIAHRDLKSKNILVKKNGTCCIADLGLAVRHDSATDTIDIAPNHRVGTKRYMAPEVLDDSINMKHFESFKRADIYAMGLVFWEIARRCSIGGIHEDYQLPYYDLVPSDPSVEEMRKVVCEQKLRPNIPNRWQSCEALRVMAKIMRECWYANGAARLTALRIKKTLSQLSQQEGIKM
Substance,TGF-beta-mediated CAGA luciferase activity in C2C12 and C3H10 T1/2 cells upon siRNA knockdown of TGFBR1 [1],myostatin-induced CAGA luciferase in C2C12 cells upon siRNA knockdown of ACVR1B [2],myostatin-induced luciferase in C2C12 upon A4E6 AON transfection (fold decrease) [2],myostatin-induced CAGA luciferase in C3H10 T1/2 cells upon siRNA knockdown of TGFBR1 [1],myostatin-induced luciferase in C3H10 T1/2 cells upon TGFBR1 knockdown with A5E2 or A5E6 AON [1]
TGF-beta (ligand),3 folds,–,–,–,–
myostatin (from UniProt O14793 267-375) (ligand),–,5 folds,3,2.5 folds,50%
